Tests used:
[1] = target: MspA-((Del-L74/G75/D118/L119)D56L/E59L/L88N/D90N/D91N/Q126R/D134R/E139K)8
[2] = target: MspA-((Del-G75N76/A117/D118)D56N/E59R/G77S/L88N/D90N/D91N/Q126R/D134R/E139K)8
[3] = target: MspA-((Del-L74/G75/D118/L119)D56N/E57D/E59R/L88N/D90N/D91N/Q126R/D134R/E139K)8
[4] = target: MspA-((Del-L74/G75/D118/L119)E59N/L88N/D90N/D91N/Q126R/D134R/E139K)8
[5] = target: MspA-((Del-L74/G75/D118/L119)E59F/L88N/D90N/D91N/Q126R/D134R/E139K)8
[6] = target: MspA-((Del-L74/G75/D118/L119)E57R/E59N/L88N/D90N/D91N/Q126R/D134R/E139K)8
[7] = target: MspA-((Del-L74/G75/D118/L119)E59R/L88N/D90N/D91N/Q126R/D134R/E139K)8
[8] = target: MspA-((Del-L74/G75/D118/L119)D56N/E59W/L88N/D90N/D91N/Q126R/D134R/E139K)8
[9] = target: MspA-((Del-L74/G75/D118/L119)D56N/E59S/L88N/D90N/D91N/Q126R/D134R/E139K)8
[10] = target: MspA-((Del-L74/G75/D118/L119)D56N/E59T/L88N/D90N/D91N/Q126R/D134R/E139K)8
[11] = target: MspA-((Del-L74/G75/D118/L119)D56N/E59F/L88N/D90N/D91N/Q126R/D134R/E139K)8
[12] = target: MspA-((Del-L74/G75/D118/L119)D56N/E59R/L88N/D90N/D91N/Q126R/D134R/E139K)8
[13] = target: MspA-(G75S/G77S/L88N/D90N/D91N/D118R/Q126R/D134R/E139K)8
[14] = target: MspA-((Del-L74/G75/D118/L119)D56N/E59Y/L88N/D90N/D91N/Q126R/D134R/E139K)8

B1: T4 Dda-E94C/C109A/C136A/A360C (SEQ ID NO: 24 with mutations E94C/C109A/C136A/A360C) (protein)
chain: MTFDDLTEGQKNAFNIVMKAIKEKKHHVTINGPAGTGKTTLTKFIIEALISTGETGIILAAPTHAAKKILSKLSGKEASTIHSILKINPVTYECNVLFEQKEVPDLAKARVLICDEVSMYDRKLFKILLSTIPPWATIIGIGDNKQIRPVDPGENTAYISPFFTHKDFYQCELTEVKRSNAPIIDVATDVRNGKWIYDKVVDGHGVRGFTGDTALRDFMVNYFSIVKSLDDLFENRVMAFTNKSVDKLNSIIRKKIFETDKDFIVGEIIVMQEPLFKTYKIDGKPVSEIIFNNGQLVRIIEAEYTSTFVKARGVPGEYLIRHWDLTVETYGDDEYYREKIKIISSDEELYKFNLFLGKTCETYKNWNKGGKAPWSDFWDAKSQFSKVKALPASTFHKAQGMSVDRAFIYTPCIHYADVELAQQLLYVGVTRGRYDVFYV
- slips forward per kilobase [1]: less than 5 slips forward per kilobase
- Average Signal to Noise (S2N) [2]: 12.5
- Mean Current Range [2]: 15.8 pA
- Mean Noise of the Signal [2]: 1.27
- Median Current Range [2]: 15.8 pA
- Median Noise of the Signal [2]: 1.21
- Standard Deviation of the Current Range [2]: 1.69 pA
- Standard Deviation of the Noise of the Signal [2]: 0.24
- Average Signal to Noise (S2N) [3]: 12.9
- Mean Current Range [3]: 15.4 pA
- Mean Noise of the Signal [3]: 1.19
- Median Current Range [3]: 15.4 pA
- Median Noise of the Signal [3]: 1.16
- Median S2N [3]: 11.9
- Percentage of complement slipping forwards [3]: 0.7%
- Standard Deviation of S2N [3]: 0.33
- Standard Deviation of the Current Range [3]: 1.77 pA
- Standard Deviation of the Noise of the Signal [3]: 0.19
- Average Signal to Noise (S2N) [4]: 13.3
- Mean Current Range [4]: 14.7 pA
- Mean Noise of the Signal [4]: 1.11
- Median Current Range [4]: 14.7 pA
- Median Noise of the Signal [4]: 1.08
- Standard Deviation of the Current Range [4]: 2.36 pA
- Standard Deviation of the Noise of the Signal [4]: 0.19
- Average Signal to Noise (S2N) [5]: 11.4
- Mean Current Range [5]: 15.7 pA
- Mean Noise of the Signal [5]: 1.37
- Median Current Range [5]: 15.7 pA
- Median Noise of the Signal [5]: 1.33
- Median S2N [5]: 11.8
- Percentage of complement slipping forwards [5]: 0.3%
- Standard Deviation of S2N [5]: 0.64
- Standard Deviation of the Current Range [5]: 1.81 pA
- Standard Deviation of the Noise of the Signal [5]: 0.22
- Average Signal to Noise (S2N) [6]: 10.6
- Mean Current Range [6]: 14.7 pA
- Mean Noise of the Signal [6]: 1.4
- Median Current Range [6]: 14.6 pA
- Median Noise of the Signal [6]: 1.22
- Standard Deviation of the Current Range [6]: 1.88
- Standard Deviation of the Noise of the Signal [6]: 0.45
- Average Signal to Noise (S2N) [7]: 12.8
- Mean Current Range [7]: 16.1 pA
- Mean Noise of the Signal [7]: 1.26
- Median Current Range [7]: 16.2 pA
- Median Noise of the Signal [7]: 1.22
- Standard Deviation of the Current Range [7]: 1.84 pA
- Standard Deviation of the Noise of the Signal [7]: 0.24
- Average Signal to Noise (S2N) [8]: 11
- Mean Current Range [8]: 15.2 pA
- Mean Noise of the Signal [8]: 1.38
- Median Current Range [8]: 15.1 pA
- Median Noise of the Signal [8]: 1.32
- Standard Deviation of the Current Range [8]: 1.85
- Standard Deviation of the Noise of the Signal [8]: 0.26
- Average Signal to Noise (S2N) [9]: 11.4
- Mean Current Range [9]: 15 pA
- Mean Noise of the Signal [9]: 1.31
- Median Current Range [9]: 14.9 pA
- Median Noise of the Signal [9]: 1.27
- Median S2N [9]: 11.3
- Percentage of complement slipping forwards [9]: 0.43%
- Standard Deviation of S2N [9]: 0.29
- Standard Deviation of the Current Range [9]: 1.7
- Standard Deviation of the Noise of the Signal [9]: 0.23
- Average Signal to Noise (S2N) [10]: 12.3
- Mean Current Range [10]: 16 pA
- Mean Noise of the Signal [10]: 1.31
- Median Current Range [10]: 16.1 pA
- Median Noise of the Signal [10]: 1.26
- Median S2N [10]: 12.6
- Percentage of complement slipping forwards [10]: 0.8%
- Standard Deviation of S2N [10]: 0.87
- Standard Deviation of the Current Range [10]: 1.87 pA
- Standard Deviation of the Noise of the Signal [10]: 0.24
- Average Signal to Noise (S2N) [11]: 12.8
- Mean Current Range [11]: 15.8 pA
- Mean Noise of the Signal [11]: 1.24
- Median Current Range [11]: 15.7 pA
- Median Noise of the Signal [11]: 1.17
- Median S2N [11]: 12.8
- Percentage of complement slipping forwards [11]: 0.25%
- Standard Deviation of S2N [11]: 0.12
- Standard Deviation of the Current Range [11]: 1.86 pA
- Standard Deviation of the Noise of the Signal [11]: 0.27
- Average Signal to Noise (S2N) [12]: 12.5
- Mean Current Range [12]: 15.3 pA
- Mean Noise of the Signal [12]: 1.22
- Median Current Range [12]: 15.3 pA
- Median Noise of the Signal [12]: 1.17
- Percentage of complement slipping forwards [12]: 0.49%
- Standard Deviation of the Current Range [12]: 1.66 pA
- Standard Deviation of the Noise of the Signal [12]: 0.2
- slips forward per kilobase [12]: less than 5 slips forward per kilobase
- Average Signal to Noise (S2N) [13]: 11.4
- Mean Current Range [13]: 15.5 pA
- Mean Noise of the Signal [13]: 1.35
- Median Current Range [13]: 15.8 pA
- Median Noise of the Signal [13]: 1.35
- Standard Deviation of the Current Range [13]: 2.23
- Standard Deviation of the Noise of the Signal [13]: 0.14
- Average Signal to Noise (S2N) [14]: 10.7
- Mean Current Range [14]: 15.9 pA
- Mean Noise of the Signal [14]: 1.48
- Median Current Range [14]: 15.9 pA
- Median Noise of the Signal [14]: 1.43
- Median S2N [14]: 10.4
- Percentage of complement slipping forwards [14]: 0.3%
- Standard Deviation of S2N [14]: 0.66
- Standard Deviation of the Current Range [14]: 1.92 pA
- Standard Deviation of the Noise of the Signal [14]: 0.24
- slips forward per kilobase [14]: less than 5 slips forward per kilobase

— patent US20240060126
